# From the supplement of paper PMC11246515
# ± gives the standard deviation of the averaged measurements.
# Experiment: total protein half-life in vivo (active degradation + dilution); higher = more stable protein
# [1] = E. coli NCM3722 delta-clpP delta-lon delta-hslV, growth: N-lim chemostat, doubling time 6 h
# [2] = E. coli NCM3722 delta-hslV, growth: N-lim chemostat, doubling time 6 h
# [3] = E. coli NCM3722 delta-lon, growth: N-lim chemostat, doubling time 6 h
# [4] = E. coli NCM3722 delta-smpB, growth: N-lim chemostat, doubling time 6 h
# [5] = wild type E. coli NCM3722, growth: C-lim chemostat, doubling time 3 h
# [6] = wild type E. coli NCM3722, growth: N-lim chemostat, doubling time 6 h
# [7] = wild type E. coli NCM3722, growth: N-lim chemostat, doubling time 12 h
# [8] = wild type E. coli NCM3722, growth: P-lim chemostat, doubling time 6 h
# [9] = wild type E. coli NCM3722, growth: P-lim chemostat, doubling time 12 h
# [10] = E. coli NCM3722 delta-clpP, growth: N-lim chemostat, doubling time 6 h
# [11] = wild type E. coli NCM3722, growth: C-lim chemostat, doubling time 6 h
# [12] = wild type E. coli NCM3722, growth: C-lim chemostat, doubling time 12 h
Sequence,total protein half-life in vivo [1] [h],total protein half-life in vivo [2] [h],total protein half-life in vivo [3] [h],total protein half-life in vivo [4] [h],total protein half-life in vivo [5] [h],total protein half-life in vivo [6] [h],total protein half-life in vivo [7] [h],total protein half-life in vivo [8] [h],total protein half-life in vivo [9] [h],total protein half-life in vivo [10] [h],total protein half-life in vivo [11] [h],total protein half-life in vivo [12] [h]
MKREEIADLMAFVVVAEERSFTRAAARLSMAQSALSQIVRRIEERLGLRLLTRTTRSVVPTEAGEHLLSVLGPMLHDIDSAMASLSDLQNRPSGTIRITTVEHAAKTILLPAMRTFLKSHPEIDIQLTIDYGLTDVVSERFDAGVRLGGEMDKDMIAIRIGPDIPMAIVGSPDYFSRRSVPTSVSQLIDHQAINLYLPTSGTANRWRLIRGGREVRVRMEGQLLLNTIDLIIDAAIDGHGLAYLPYDQVERAIKEKKLIRVLDKFTPDLPGYHLYYPHRRHAGSAFSLFIDRLKYKGAV,5.34 ± 0.45,> 8,6.34,6.01 ± 1.5,2.929 ± 0.019,5.238 ± 0.043,11.7,5.36,9.19 ± 3.4,–,–,–
MANFFIRRPIFAWVLAIILMMAGALAILQLPVAQYPTIAPPAVSVSANYPGADAQTVQDTVTQVIEQNMNGIDNLMYMSSTSDSAGSVTITLTFQSGTDPDIAQVQVQNKLQLATPLLPQEVQQQGISVEKSSSSYLMVAGFVSDNPGTTQDDISDYVASNVKDTLSRLNGVGDVQLFGAQYAMRIWLDADLLNKYKLTPVDVINQLKVQNDQIAAGQLGGTPALPGQQLNASIIAQTRFKNPEEFGKVTLRVNSDGSVVRLKDVARVELGGENYNVIARINGKPAAGLGIKLATGANALDTAKAIKAKLAELQPFFPQGMKVLYPYDTTPFVQLSIHEVVKTLFEAIMLVFLVMYLFLQNMRATLIPTIAVPVVLLGTFAILAAFGYSINTLTMFGMVLAIGLLVDDAIVVVENVERVMMEDKLPPKEATEKSMSQIQGALVGIAMVLSAVFIPMAFFGGSTGAIYRQFSITIVSAMALSVLVALILTPALCATLLKPVSAEHHENKGGFFGWFNTTFDHSVNHYTNSVGKILGSTGRYLLIYALIVAGMVVLFLRLPSSFLPEEDQGVFLTMIQLPAGATQERTQKVLDQVTDYYLKNEKANVESVFTVNGFSFSGQAQNAGMAFVSLKPWEERNGDENSAEAVIHRAKMELGKIRDGFVIPFNMPAIVELGTATGFDFELIDQAGLGHDALTQARNQLLGMAAQHPASLVSVRPNGLEDTAQFKLEVDQEKAQALGVSLSDINQTISTALGGTYVNDFIDRGRVKKLYVQADAKFRMLPEDVDKLYVRSANGEMVPFSAFTTSHWVYGSPRLERYNGLPSMEIQGEAAPGTSSGDAMALMENLASKLPAGIGYDWTGMSYQERLSGNQAPALVAISFVVVFLCLAALYESWSIPVSVMLVVPLGIVGVLLAATLFNQKNDVYFMVGLLTTIGLSAKNAILIVEFAKDLMEKEGKGVVEATLMAVRMRLRPILMTSLAFILGVLPLAISNGAGSGAQNAVGIGVMGGMVSATLLAIFFVPVFFVVIRRCFKG,–,5.63,–,–,–,–,8.2,–,–,–,–,–
MESKVVVPAQGKKITLQNGKLNVPENPIIPYIEGDGIGVDVTPAMLKVVDAAVEKAYKGERKISWMEIYTGEKSTQVYGQDVWLPAETLDLIREYRVAIKGPLTTPVGGGIRSLNVALRQELDLYICLRPVRYYQGTPSPVKHPELTDMVIFRENSEDIYAGIEWKADSADAEKVIKFLREEMGVKKIRFPEHCGIGIKPCSEEGTKRLVRAAIEYAIANDRDSVTLVHKGNIMKFTEGAFKDWGYQLAREEFGGELIDGGPWLKVKNPNTGKEIVIKDVIADAFLQQILLRPAEYDVIACMNLNGDYISDALAAQVGGIGIAPGANIGDECALFEATHGTAPKYAGQDKVNPGSIILSAEMMLRHMGWTEAADLIVKGMEGAINAKTVTYDFERLMDGAKLLKCSEFGDAIIENM,4.7 ± 0.38,4.05 ± 0.061,4.61 ± 0.056,4.1 ± 0.047,3.16 ± 0.068,4.08 ± 0.24,6.47 ± 0.1,5.73 ± 0.1,12.3 ± 0.41,4.36 ± 0.53,5.584 ± 0.048,10.1 ± 0.64
MSHKPAHLLLVDDDPGLLKLLGLRLTSEGYSVVTAESGAEGLRVLNREKVDLVISDLRMDEMDGMQLFAEIQKVQPGMPVIILTAHGSIPDAVAATQQGVFSFLTKPVDKDALYQAIDDALEQSAPATDERWREAIVTRSPLMLRLLEQARLVAQSDVSVLINGQSGTGKEIFAQAIHNASPRNSKPFIAINCGALPEQLLESELFGHARGAFTGAVSNREGLFQAAEGGTLFLDEIGDMPAPLQVKLLRVLQERKVRPLGSNRDIDINVRIISATHRDLPKAMARGEFREDLYYRLNVVSLKIPALAERTEDIPLLANHLLRQAAERHKPFVRAFSTDAMKRLMTASWPGNVRQLVNVIEQCVALTSSPVISDALVEQALEGENTALPTFVEARNQFELNYLRKLLQITKGNVTHAARMAGRNRTEFYKLLSRHELDANDFKE [P0AFU4],6.81 ± 1.7,4.48 ± 0.2,5 ± 0.17,4.45 ± 0.29,3.25 ± 0.19,4.26 ± 0.069,7.72 ± 0.09,5.4 ± 0.19,12 ± 0.29,4.73 ± 0.42,5.86 ± 0.38,11 ± 2.4
MNTSHVRVVTHMCGFLVWLYSLSMLPPMVVALFYKEKSLFVFFITFVIFFCIGGGAWYTTKKSGIQLRTRDGFIIIVMFWILFSVISAFPLWIDSELNLTFIDALFEGVSGITTTGATVIDDVSSLPRAYLYYRSQLNFIGGLGVIVLAVAVLPLLGIGGAKLYQSEMPGPFKDDKLTPRLADTSRTLWITYSLLGIACIVCYRLAGMPLFDAICHGISTVSLGGFSTHSESIGYFNNYLVELVAGSFSLLSAFNFTLWYIVISRKTIKPLIRDIELRFFLLIALGVIIVTSFQVWHIGMYDLHGSFIHSFFLASSMLTDNGLATQDYASWPTHTIVFLLLSSFFGGCIGSTCGGIKSLRFLILFKQSKHEINQLSHPRALLSVNVGGKIVTDRVMRSVWSFFFLYTLFTVFFILVLNGMGYDFLTSFATVAACINNMGLGFGATASSFGVLNDIAKCLMCIAMILGRLEIYPVIILFSGFFWRS,–,5.64 ± 0.43,–,6.77,> 4,–,> 16,> 8,–,> 8,–,13.5
MDFFSVQNILVHIPIGAGGYDLSWIEAVGTIAGLLCIGLASLEKISNYFFGLINVTLFGIIFFQIQLYASLLLQVFFFAANIYGWYAWSRQTSQNEAELKIRWLPLPKALSWLAVCVVSIGLMTVFINPVFAFLTRVAVMIMQALGLQVVMPELQPDAFPFWDSCMMVLSIVAMILMTRKYVENWLLWVIINVISVVIFALQGVYAMSLEYIILTFIALNGSRMWINSARERGSRALSH [P0AFK2],6.22,6.54,5.58 ± 0.22,5.5 ± 0.096,3.29 ± 0.33,6.05,11.5 ± 3,6.07 ± 0.39,–,6.15 ± 0.15,6.14 ± 0.31,11.8 ± 2.2
MARLFTLSESKYYLMALDAGTGSIRAVIFDLEGNQIAVGQAEWRHLAVPDVPGSMEFDLNKNWQLACECMRQALHNAGIAPEYIAAVSACSMREGIVLYNNEGAPIWACANVDARAAREVSELKELHNNTFENEVYRATGQTLALSAIPRLLWLAHHRSDIYRQASTITMISDWLAYMLSGELAVDPSNAGTTGLLDLTTRDWKPALLDMAGLRADILSPVKETGTLLGVVSSQAAELCGLKAGTPVVVGGGDVQLGCLGLGVVRPAQTAVLGGTFWQQVVNLAAPVTDPEMNVRVNPHVIPGMVQAESISFFTGLTMRWFRDAFCAEEKLIAERLGIDTYTLLEEMASRVPPGSWGVMPIFSDRMRFKTWYHAAPSFINLSIDPDKCNKATLFRALEENAAIVSACNLQQIADFSNIHPSSLVFAGGGSKGKLWSQILADVSGLPVNIPVVKEATALGCAIAAGVGAGIFSSMAETGERLVRWERTHTPDPEKHELYQDSRDKWQAVYQDQLGLVDHGLTTSLWKAPGL,4.78 ± 0.065,–,2.49,1.27,1.55 ± 0.35,–,–,–,–,1.36,2.83 ± 0.42,2.92 ± 0.031
MTHLPHWWQNGVIYQIYPKSFQDTTGSGTGDLRGVIQHLDYLHKLGVDAIWLTPFYVSPQVDNGYDVANYTAIDPTYGTLDDFDELVTQAKSRGIRIILDMVFNHTSTQHAWFREALNKESPYRQFYIWRDGEPETPPNNWRSKFGGSAWRWHAESEQYYLHLFAPEQADLNWENPAVRAELKKVCEFWADRGVDGLRLDVVNLISKDPRFPEDLDGDGRRFYTDGPRAHEFLHEMNRDVFTPRGLMTVGEMSSTSLEHCQRYAALTGSELSMTFNFHHLKVDYPGGEKWTLAKPDFVALKTLFRHWQQGMHNVAWNALFWCNHDQPRIVSRFGDEGEYRVPAAKMLAMVLHGMQGTPYIYQGEEIGMTNPHFTRITDYRDVESLNMFAELRNDGRDADELLAILASKSRDNSRTPMQWSNGDNAGFTAGEPWIGLGDNYQQINVEAALADDSSVFYTYQKLIALRKQEAILTWGNYQDLLPNSPVLWCYRREWKGQTLLVIANLSREIQPWQAGQMRGNWQLVMHNYEEASPQPCAMNLRPFEAVWWLQK,–,–,–,–,2.39 ± 0.28,–,–,–,5.64,–,1.98 ± 0.55,2.82 ± 0.88
MMLSEETSAVRPQKQTRFNGAKLVWMLKGSPLTVTSAVIIVLMLLMMIFSPWLATHDPNAIDLTARLLPPSAAHWFGTDEVGRDLFSRVLVGSQQSILAGLVVVAIAGMIGSLLGCLSGVLGGRADAIIMRIMDIMLSIPSLVLTMALAAALGPSLFNAMLAIAIVRIPFYVRLARGQALVVRQYTYVQAAKTFGASRWHLINWHILRNSLPPLIVQASLDIGSAILMAATLGFIGLGAQQPSAEWGAMVANGRNYVLDQWWYCAFPGAAILLTAVGFNLFGDGIRDLLDPKAGGKQS,–,–,–,4.22 ± 0.1,–,4.15,6.94,–,–,–,–,–
MNNSINHKFHHISRAEYQELLAVSRGDAVADYIIDNVSILDLINGGEISGPIVIKGRYIAGVGAEYTDAPALQRIDARGATAVPGFIDAHLHIESSMMTPVTFETATLPRGLTTVICDPHEIVNVMGEAGFAWFARCAEQARQNQYLQVSSCVPALEGCDVNGASFTLEQMLAWRDHPQVTGLAEMMDYPGVISGQNALLDKLDAFRHLTLDGHCPGLGGKELNAYITAGIENCHESYQLEEGRRKLQLGMSLMIREGSAARNLNALAPLINEFNSPQCMLCTDDRNPWEIAHEGHIDALIRRLIEQHNVPLHVAYRVASWSTARHFGLNHLGLLAPGKQADIVLLSDARKVTVQQVLVKGEPIDAQTLQAEESARLAQSAPPYGNTIARQPVSASDFALQFTPGKRYRVIDVIHNELITHSHSSVYSENGFDRDDVSFIAVLERYGQRLAPACGLLGGFGLNEGALAATVSHDSHNIVVIGRSAEEMALAVNQVIQDGGGLCVVRNGQVQSHLPLPIAGLMSTDTAQSLAEQIDALKAAARECGPLPDEPFIQMAFLSLPVIPALKLTSQGLFDGEKFAFTTLEVTE,4.53,–,–,–,2.16 ± 0.17,–,–,3.61 ± 1.4,4.14 ± 0.77,3.24 ± 0.11,3.19 ± 0.16,4.26 ± 0.098
MEQAHTQLIAQLNERILAADNTPLYIKFAETVKNAVRSGVLEHGNILPGERDLSQLTGVSRITVRKAMQALEEEGVVTRSRGYGTQINNIFEYSLKEARGFSQQVVLRGKKPDTLWVNKRVVKCPEEVAQQLAVEAGSDVFLLKRIRYVDEEAVSIEESWVPAHLIHDVDAIGISLYDYFRSQHIYPQRTRSRVSARMPDAEFQSHIQLDSKIPVLVIKQVALDQQQRPIEYSISHCRSDLYVFVCEE [P0ACM5],5.72 ± 0.0036,4.14 ± 0.2,4.55 ± 0.12,3.91 ± 0.15,2.75 ± 0.084,4.04 ± 0.17,6.99 ± 0.2,4.28 ± 0.053,7.99 ± 0.19,–,4.84 ± 0.37,8.6 ± 0.18
MQQLQNIIETAFERRAEITPANADTVTREAVNQVIALLDSGALRVAEKIDGQWVTHQWLKKAVLLSFRINDNQVIEGAESRYFDKVPMKFADYDEARFQKEGFRVVPPAAVRQGAFIARNTVLMPSYVNIGAYVDEGTMVDTWATVGSCAQIGKNVHLSGGVGIGGVLEPLQANPTIIEDNCFIGARSEVVEGVIVEEGSVISMGVYIGQSTRIYDRETGEIHYGRVPAGSVVVSGNLPSKDGKYSLYCAVIVKKVDAKTRGKVGINELLRTID [P0A9D8],4.878 ± 0.043,4.13 ± 0.23,4.507 ± 0.042,4.12 ± 0.12,2.97 ± 0.074,4.19 ± 0.11,6.89 ± 0.2,5.91 ± 0.12,11 ± 0.57,4.24 ± 0.13,5.34 ± 0.39,9.591 ± 0.062
